Data on one molecule can be found in publication PMC6644640.

The target in the data set is prostate-specific antigen (PSA), enzymatically active, from human seminal fluid (human, UniProt P07288 25-261). Nature of the data set: chemiluminescence sandwich assay on Si NW surface.
prostate-specific antigen (PSA), enzymatically active, from human seminal fluid, sequence (P07288 25-261): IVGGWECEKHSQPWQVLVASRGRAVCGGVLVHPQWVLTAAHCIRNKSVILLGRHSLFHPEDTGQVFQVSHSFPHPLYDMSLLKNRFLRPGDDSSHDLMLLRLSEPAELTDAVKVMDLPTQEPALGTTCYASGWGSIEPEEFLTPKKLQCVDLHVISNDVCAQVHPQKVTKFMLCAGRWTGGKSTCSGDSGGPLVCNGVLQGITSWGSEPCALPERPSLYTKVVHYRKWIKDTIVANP

With AAAAATTAATTTCGAGCGGTAGTTTATCGAAA (ssDNA, 5'-H3N-(CH2)6) [nonspecific aptamer (32 nt control)], the binding result was “no binding”.
